19 sequences from the DeepSol protein solubility set can be followed below.

The series is described as follows: soluble on expression in E. coli; label from the status in PepcDB or PDB records.
Consider “MRFLDRFFKKKKKEEALWTKCPNCKSLLYVPDLESNLKVCPNCDYHFTLSALERIKYTLDEENPELLFEEILPADPLNFKDTKSYKDRIKKAQEETGLSEAIVITEGHIKGKRAILAVMDFNFIGGSMGSVVGERFFRACERAVETKTPLISFAASGGARMQEGILSLMQMAKTTFGVGLLKEANIPYISVLTNPTMGGVSASFAFLGDLILAEPKALIGFAGPRVIEQTIKQKLPEGFQTAEFLLEKGQIDMVVHRKELKDKLAYFLEVMYYAKRLEHHHHHH”, for which the “soluble on expression in E. coli” value is given as “not soluble”.

Consider “MGSDKIHHHHHHMSDQTRQPNSSSGLSQLLTGRLRSKLAAGVTHLTSGSGPTLDYSSPPGDPGLFGPDSVCWKVHADFTSMMTGGISALLLQALHPLALAGVWDHSAFRTDILGRLRRTATFIAGTTYGNRHDALALVERVKRIHLGVSGVAPDGRPYRASEPALLTWVHVAEVSSFMTAHLRYVNPLLPVAAQDQYFAETARIAEMLGASDIPRSRAGIDAYLLAMQPELVASERTRELVRILMNAPAPSASMRPAGVLMLNAGVDLLPDWAQAMLGFQRYAALRRAVTRPGVRLVAPVIRWALVNGVSKRARRRVAAGVREPE”, for which the “soluble on expression in E. coli” value is “not soluble”.

On to “MGSDKIHHHHHHMLIYHYTTVDTFLKILDSKAIWASDLSKMNDPQEFTIGIELIKKFYQKKFPDLLHWFENDRFVGLDNEQLLLGCSFSENPDDLSQWRAYGDDGKGVVIGINRRILSASNTLTIPAFYKKDERTASFVHFHKVIYDKQEFENSVKELLDNIGDFINDTVESFKLSIGLSRLACSFKSDFYKTEQEIRAILEHSKRSDIYLDESLKKHKLFDVKFRLSQFGLVPYCKVNLSNADASSIQTVKLGPKCNISKKDLEFMLLATGNKDILVSTSAGQYR”, for which the “soluble on expression in E. coli” value is “not soluble”.

Regarding “MGHHHHHHSHMEGTYITSEHSYQKPQSFGQDCKSLADPGSSDDDDVSSLEEEQEFHMRSKNSLQYSAKEHGMPEKNPAEGNTVFVYNDKKGTEDPGDSHLQWQLNLLTHIENVQNEVTSRMDLIEKEVDVLESWLDFTGELEPPDPLARLPQLKRHIKQLLIDMGKVQQIATLCSV”, the “soluble on expression in E. coli” value is “not soluble”.

Regarding “MLNQELELSLNMAFARAREHRHEFMTVEHLLLALLSNPSAREALEACSVDLVALRQELEAFIEQTTPVLPASEEERDTQPTLSFQRVLQRAVFHVQSSGRNEVTGANVLVAIFSEQESQAAYLLRKHEVSRLDVVNFISHGTRKDEPTQSSDPGSQPNSEEQAGGEERLENFTTNLNQLARVGGIDPLIGREKELERAIQVLCRRRKNNPLLVGESGVGKTAIAEGLAWRIVQGDVPEVMADCTIYSLDIGSLLAGTKYRGDFEKRFKALLKQLEQDTNSILFIDEIHTIIGAGAASGGQVDAANLIKPLLSSGKIRVIGSTTYQEFSNIFEKDRALARRFQKIDITEPSIEETVQIINGLKPKYEAHHDVRYTAKAVRAAVELAVKYINDRHLPDKAIDVIDEAGARARLMPVSKRKKTVNVADIESVVARIARIPEKSVSQSDRDTLKNLGDRLKMLVFGQDKAIEALTEAIKMARAGLGHEHKPVGSFLFAGPTGVGKTEVTVQLSKALGIELLRFDMSEYMERHTVSRLIGAPPGYVGFDQGGLLTDAVIKHPHAVLLLDEIEKAHPDVFNILLQVMDNGTLTDNNGRKADFRNVVLVMTTNAGVRETERKSIGLIHQDNSTDAMEEIKKIFTPEFRNRLDNIIWFDHLSTDVIHQVVDKFIVELQVQLDQKGVSLEVSQEARNWLAEKGYDRAMGARPMARVIQDNLKKPLANELLFGSLVDGGQVTVALDKEKNELTYGFQSAQKHKAEAAH”, the “soluble on expression in E. coli” value is “soluble”.

On to “MSLAHRTVAMVLFNDVLLLDVTGPMDAFAIANRFLPAARQYRLLTLAEGQAVVRGSCGLKVVADRRLEDLPEAVDLLLVPGGPGAYDIALPGIERWLPKAVRQAKRFGAICTGVFLLGRAGLLNGYRCTTHWNYVERLAQAFPEAKVETEQIYVMDRCLITSGGITAGIDLALAVVAEDHGKALALEVAKVLLVARHRQGGQTPYGPLLAAVPRDDSPIARVQAYIVDHIEQAFTVQKMAELVAMSGRNFARTFLREVGITPLQYLQNARIDRTRKLLECGDLPMKVVAAQCGFGSDRHMRKVFFERIGMTPAQYRAQFGGEGHHHHHH”, for which the “soluble on expression in E. coli” value is listed as “soluble”.

Take “MSTYLIGDIHGCLDELLALLAQVNFDPQQDTLWLTGDLVARGPASLDVLRYVRSLGPAVRMVLGNHDLHLLAVYAGISRNKPKDRITPLLDAPDADELINWLRRQPVLQVDDQLKLIMAHAGITPQWDIETAKMCAREVEAVLSSDSYPLFLDAMYGDMPNNWSPELTGLARLRFSTNALTRMRFCFPNGQLDMICKDTPENAPAPLKPWFDLPRLVDPEYSIIFGHWASLEGKGVPEGIYGLDTGCCWGGDLTLLRWDDKRYFTQRAFKAEAEINNNNGFAAGEAVQH”: the “soluble on expression in E. coli” value is on record as “not soluble”.

With “MPDEKDKHEGTWLQWPHEYTYGEEYKKEVEPIWVKMASALTEGEKVHIVAYDQEEKERINNLLTDEGLNMEKIDFFIAPTDDVWARDSGPIFVYDSNKNLKILDPAFNGWGKKTPYKNDAQIRKNVSKQSGIERVDWGKFVLEGGAIELDSNGTALLTRSAVTNKNRNPDLSEKEIEKYISDLGVSNFIWLDGVPNLDITDFHIDGFAKFHNKSTIVTMKEDDLAEWGLSNKDMDTLLDAKNASGQKYKYEYLPLSKEKVALENGKTLDYKGSYINYYIGNTVVLVPNYNDPNDKIANDTIQKLYPDRKVVGIDVRELYKNGGMIHCVTQQQPIALKMAGDPLEHHHHHH”, the “soluble on expression in E. coli” value was “soluble”.

As to “MDPMYLLVDVGNTHSVFSITEDGKTFRRWRLSTGVFQTEDELFSHLHPLLGDAMREIKGIGVASVVPTQNTVIERFSQKYFHISPIWVKAKNGCVKWNVKNPSEVGADRVANVVAFVKEYGKNGIIIDMGTATTVDLVVNGSYEGGAILPGFFMMVHSLFRGTAKLPLVEVKPADFVVGKDTEENIRLGVVNGSVYALEGIIGRIKEVYGDLPVVLTGGQSKIVKDMIKHEIFDEDLTIKGVYHFCFGD”, the “soluble on expression in E. coli” value was “soluble”.

Regarding “MKANSDELQSFVSVVDSGSISAAAEQMGLTASAVSRTLSRLEHKLGTTLLNRTTRRMELTEEGRYFLDQARQILQQMEALEERLALRRQSPAGRLRINAASPFMLHAVVPHIGEFRRLYPDIQLELNTNDLIIDLLEQRTDVAIRIGALSDSTLHARPLGASRLHILASPEYLARHGTPASIEGLRGHTLLGFTQPEHLNRWPVVHADGDRLEIQPDISASSGETLRQLALSHQGIACLASFMTDRDIQDGRLVPLFAEQMSEYRQPIHAVYYRNSQLALRIQCFLDFIQQRLGA”, the “soluble on expression in E. coli” value is given as “not soluble”.

With “MSLEKVQLPSVPAFKGHSFLAFPTLRAYHTLRLAMEFRALETEGLLLYNGNARGKDFLALALLDGHVQFRFDTGSGPAVLTSLVPVEPGRWHRLELSRHWRQGTLSVDGEAPVVGESPSGTDGLNLDTKLYVGGLPEEQVATVLDRTSVGIGLKGCIRMLDINNQQLELSDWQRAVVQSSGVGEEGHHHHHH”, the “soluble on expression in E. coli” value was “soluble”.

“MSSPPPARSGFYRQEVTKTAWEVRAVYRDLQPVGSGAYGAVCSAVDGRTGAKVAIKKLYRPFQSELFAKRAYRELRLLKHMRHENVIGLLDVFTPDETLDDFTDFYLVMPFMGTDLGKLMKHEKLGEDRIQFLVYQMLKGLRYIHAAGIIHRDLKPGNLAVNEDCELKILDFGLARQADSEMTGYVVTRWYRAPEVILNWMRYTQTVDIWSVGCIMAEMITGKTLFKGSDHLDQLKEIMKVTGTPPAEFVQRLQSDEAKNYMKGLPELEKKDFASILTNASPLAVNLLEKMLVLDAEQRVTAGEALAHPYFESLHDTEDEPQVQKYDDSFDDVDRTLDEWKRVTYKEVLSFKPPRQLGARVSKETPL”: the “soluble on expression in E. coli” value is recorded as “soluble”.

Regarding “MGHHHHHHSHMTLEEVRGQDTVPESTARMQGAGKALHELLLSAQRQGCLTAGVYESAKVLNVDPDNVTFCVLAAGEEDEGDIALQIHFTLIQAFCCENDIDIVRVGDVQRLAAIVGAGEEAGAPGDLHCILISNPNEDAWKDPALEKLSLFCEESRSVNDWVPSITLPE”, the “soluble on expression in E. coli” value is “soluble”.

Take “LNIHVTIREATEGDLEQMVHMLADDVLGRKRERYEKPLPVSYVRAFKEIKKDKNNELIVACNGEEIVGMLQVTFTPYLTYQGSWRATIEGVRTHSAARGQGIGSQLVCWAIERAKERGCHLIQLTTDKQRPDALRFYEQLGFKASHEGLKMHF”: the “soluble on expression in E. coli” value is “soluble”.

Regarding “SLKDELANIPGIQFVDHVAIAVKQGDLEGQVAAYKMLGFTEVHREDVLGGDQVREVLLRIGDGPNLIQLLEPLNASSPVQKLIEKNGGRGGFAHVAFRVRNARESFDAMTAQGFHIIDKAPRKGSRGTTVFFVHPKSLDSAPFGFLIEIVEEPVEG”, the “soluble on expression in E. coli” value is “soluble”.

For “MGSCCSCLNRDSVPDNHPTKFKVTNVDDEGVELGSGVMELTQSELVLHLHRREAVRWPYLCLRRYGYDSNLFSFESGRRCQTGQGIFAFKCSRAEEIFNLLQDLMQCNSINVMEEPVIITRNSHPAELDLPRAPQPPNALGYTVSSFSNGCPGEGPRFSAPRRLSTSSLRHPSLGEESTHALIAPDEQSHTYVNTPASEDDHRRGRHCLQPLPEGQAPFLPQARGPDQRDPQVFLQPGQVKFVLGPTPARRHMVKCQGLCPSLHDPPHHNNNNEAPSECPAQPKCTYENVTGGLWRGAGWRLSPEEPGWNGLAHRRAALLHYENLPPLPPVWESQAQQLGGEAGDDGDSRDGLTPSSNGFPDGEEDETPLQKPTSTRAAIRSHGSFPVPLTRRRGSPRVFNFDFRRPGPEPPRQLNYIQVELKGWGGDRPKGPQNPSSPQAPMPTTHPARSSDSYAVIDLKKTVAMSNLQRALPRDDGTARKTRHNSTDLPL”, the “soluble on expression in E. coli” value is “soluble”.

On to “SLGELPPAPSDSKRTVFLDIDETLVHVTPYPLPFVKPDATFLLQEHRRPSDPPGVSPEYLPGVSAGAAPRAALLHVYYRPFLMPFLENLLQTNRCELVAFTAALREYADPILDGIETKLGGARGSVFAARLYRQHCARAPRSKDLVHAAPSRCLSRCVLLDNSVVSLAAQLANGLLLRPFYGDPQDRELEGVLAFLLDLLEKTGDIRESMKESGMLHKVT”, for which the “soluble on expression in E. coli” value is listed as “soluble”.

On to “MRGSHHHHHHGSMAVPPTYADLGKSARDVFTKGYGFGLIKLDLKTKSENGLEFTSSGSANTETTKVNGSLETKYRWTEYGLTFTEKWNTDNTLGTEITVEDQLARGLKLTFDSSFSPNTGKKNAKIKTGYKREHINLGCDVDFDIAGPSIRGALVLGYEGWLAGYQMNFETSKSRVTQSNFAVGYKTDEFQLHTNVNDGTEFGGSIYQKVNKKLETAVNLAWTAGNSNTRFGIAAKYQVDPDACFSAKVNNSSLIGLGYTQTLKPGIKLTLSALLDGKNVNAGGHKLGLGLEFQA”, for which the “soluble on expression in E. coli” value is “soluble”.

“MSLKTFLVCALEPSANLHLKEVLKAYKKDFGEFELHGIYDESLCKEFDLNSKPLYSSHEFSAMGFIEVLPLIFKAKKAIKELANLSFTQKINGILCIDSPAFNIPFAKALKKAGSKIPRIYYILPQVWAWKKGRIPIIESHFDILASILPFDNQFFNKSTYIGHPLLDEIKEFKNQEDINHTFSKKDDEKTIAFLPGSRRSEIRRLMPIFKELSQKFKGKKILCVPSFNLEKLEVYGDISEFKIESNTPKVLKKADFAFICSGTATLEAALVGTPFVLAYKAKAIDIFIAKLFVKLKHIGLANIFCDFAGKEALNPEFLQDKVNVLNLYEAYNKYDYKAFFAKVDFLKEYLQFGSAKNLAKILNEIEGHHHHHH”: the “soluble on expression in E. coli” value was “soluble”.
